{"source": "paper PMC10213792", "about": "(Acta Pharmaceutica Sinica. B, 2023)", "molecules": {"B1": {"name": "FITC-FtsZ (FITC-SIGGDDDDVDVPPFMRR-OH, 363-379 amino acids of the full-length FtsZ) (peptide)", "peptide": "{FITC}-SIGGDDDDVDVPPFMRR-OH"}, "B2": {"name": "His-tagged SepFc (N-terminal truncated version of SepF, amino acids 115-203) (domain or fragment)", "chain": "EMTRPRFGSWLRNSTRGALAMDPRRMAMMFEDGHPLSKITTLRPKDYSEARTIGERFRDGSPVIMDLVSMDNADAKRLVDFAAGLAFAL"}}, "key": {"SepF": {"target": "SepF (Mycobacterium tuberculosis, UniProt P9WGJ5)", "sequence (P9WGJ5 115-203)": "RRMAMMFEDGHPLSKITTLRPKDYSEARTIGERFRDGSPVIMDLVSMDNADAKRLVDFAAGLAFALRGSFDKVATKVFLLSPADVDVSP", "experiment": "SPR", "type": "binding"}, "[1]": {"target": "B2", "experiment": "fluorescence polarisation"}, "His-tagged FtsZ": {"target": "T1, His-tagged FtsZ (M. tuberculosis H37Rv, UniProt P9WN95 1-379)", "T1 sequence": "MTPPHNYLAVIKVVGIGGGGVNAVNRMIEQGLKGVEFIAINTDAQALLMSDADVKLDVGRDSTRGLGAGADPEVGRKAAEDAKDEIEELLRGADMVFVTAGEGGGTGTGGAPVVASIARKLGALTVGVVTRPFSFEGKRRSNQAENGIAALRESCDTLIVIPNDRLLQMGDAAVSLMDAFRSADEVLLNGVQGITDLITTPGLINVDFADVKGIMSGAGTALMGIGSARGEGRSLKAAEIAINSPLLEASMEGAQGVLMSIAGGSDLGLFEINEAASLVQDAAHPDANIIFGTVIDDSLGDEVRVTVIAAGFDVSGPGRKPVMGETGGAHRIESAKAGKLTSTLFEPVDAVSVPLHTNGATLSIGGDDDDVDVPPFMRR", "experiment": "SPR"}}, "note": "The star is where a group is joined. FITC = O=C1OC2(c3ccc(O)cc3Oc3cc(O)ccc32)c2ccc(NC(=S)*)cc21", "data": [{"molecule": "OC(COc1ccc2ccccc2c1)CN1CCCN(CC(O)COc2ccc3ccccc3c2)CC1", "note": "(stereo not drawn) [T0349, 1-{4-[2-hydroxy-3-(naphthalen-2-yloxy)propyl]-1,4-diazepan-1-yl}-3-(naphthalen-2-yloxy) propan-2-ol]", "values": [{"measurement": "Kd", "setting": "SepF", "value": 46.8, "unit": "µM"}]}, {"molecule": "B1", "values": [{"measurement": "Kd", "setting": "[1]", "value": 0.0186, "unit": "µM"}]}, {"molecule": "B2", "values": [{"measurement": "Kd", "setting": "His-tagged FtsZ", "value": 5.16, "unit": "µM"}]}]}
